B7: human Siglec-1 (receptor, UniProt Q9BZZ2 20-1641, looked up)
chain: SWGVSSPQDVQGVKGSCLLIPCIFSFPADVEVPDGITAIWYYDYSGQRQVVSHSADPKLVEARFRGRTEFMGNPEHRVCNLLLKDLQPEDSGSYNFRFEISEVNRWSDVKGTLVTVTEEPRVPTIASPVELLEGTEVDFNCSTPYVCLQEQVRLQWQGQDPARSVTFNSQKFEPTGVGHLETLHMAMSWQDHGRILRCQLSVANHRAQSEIHLQVKYAPKGVKILLSPSGRNILPGELVTLTCQVNSSYPAVSSIKWLKDGVRLQTKTGVLHLPQAAWSDAGVYTCQAENGVGSLVSPPISLHIFMAEVQVSPAGPILENQTVTLVCNTPNEAPSDLRYSWYKNHVLLEDAHSHTLRLHLATRADTGFYFCEVQNVHGSERSGPVSVVVNHPPLTPVLTAFLETQAGLVGILHCSVVSEPLATLVLSHGGHILASTSGDSDHSPRFSGTSGPNSLRLEIRDLEETDSGEYKCSATNSLGNATSTLDFHANAARLLISPAAEVVEGQAVTLSCRSGLSPTPDARFSWYLNGALLHEGPGSSLLLPAASSTDAGSYHCRARDGHSASGPSSPAVLTVLYPPRQPTFTTRLDLDAAGAGAGRRGLLLCRVDSDPPARLQLLHKDRVVATSLPSGGGCSTCGGCSPRMKVTKAPNLLRVEIHNPLLEEEGLYLCEASNALGNASTSATFNGQATVLAIAPSHTLQEGTEANLTCNVSREAAGSPANFSWFRNGVLWAQGPLETVTLLPVARTDAALYACRILTEAGAQLSTPVLLSVLYPPDRPKLSALLDMGQGHMALFICTVDSRPLALLALFHGEHLLATSLGPQVPSHGRFQAKAEANSLKLEVRELGLGDSGSYRCEATNVLGSSNTSLFFQVRGAWVQVSPSPELQEGQAVVLSCQVHTGVPEGTSYRWYRDGQPLQESTSATLRFAAITLTQAGAYHCQAQAPGSATTSLAAPISLHVSYAPRHVTLTTLMDTGPGRLGLLLCRVDSDPPAQLRLLHGDRLVASTLQGVGGPEGSSPRLHVAVAPNTLRLEIHGAMLEDEGVYICEASNTLGQASASADFDAQAVNVQVWPGATVREGQLVNLTCLVWTTHPAQLTYTWYQDGQQRLDAHSIPLPNVTVRDATSYRCGVGPPGRAPRLSRPITLDVLYAPRNLRLTYLLESHGGQLALVLCTVDSRPPAQLALSHAGRLLASSTAASVPNTLRLELRGPQPRDEGFYSCSARSPLGQANTSLELRLEGVRVILAPEAAVPEGAPITVTCADPAAHAPTLYTWYHNGRWLQEGPAASLSFLVATRAHAGAYSCQAQDAQGTRSSRPAALQVLYAPQDAVLSSFRDSRARSMAVIQCTVDSEPPAELALSHDGKVLATSSGVHSLASGTGHVQVARNALRLQVQDVPAGDDTYVCTAQNLLGSISTIGRLQVEGARVVAEPGLDVPEGAALNLSCRLLGGPGPVGNSTFAWFWNDRRLHAEPVPTLAFTHVARAQAGMYHCLAELPTGAAASAPVMLRVLYPPKTPTMMVFVEPEGGLRGILDCRVDSEPLASLTLHLGSRLVASSQPQGAPAEPHIHVLASPNALRVDIEALRPSDQGEYICSASNVLGSASTSTYFGVRALHRLHQFQQ
notes: Construct not described; also called sialoadhesin; CD169

One assay addresses T1, human FcγRIIB (human, UniProt P31994 46-217).
T1 construct: Bought protein, construct not described
T1 sequence (looked up): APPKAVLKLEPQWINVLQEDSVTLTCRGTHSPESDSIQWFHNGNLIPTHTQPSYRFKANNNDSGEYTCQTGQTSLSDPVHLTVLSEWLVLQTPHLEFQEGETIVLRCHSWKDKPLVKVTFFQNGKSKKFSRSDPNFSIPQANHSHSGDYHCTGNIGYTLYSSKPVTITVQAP
Kind of assay: ELISA, receptor coated on plate. On the procedure:
(§1) ELISAs were used to investigate the binding of oligomeric Fc mutants to FcγRI, FcγRIIA, FcγRIIB, FcγRIIIA and FcγRIIIB (all from R&D laboratories). Receptors were coated down to ELISA plates (Nunc) in carbonate buffer pH9 (Sigma-Aldrich) at 2 μg/ml overnight at 4° C. Plates were then blocked in PBS/0.1% Tween-20 (PBST) containing 4% skimmed milk (Tesco). Plates were then washed three times in PBS/0.1% Tween-20 (PBST) before adding Fc mutants at the indicated concentrations in PBST overnight at 4° C. Plates were washed as above and incubated for 2 h with 1:500 dilution of an alkaline phosphatase conjugated goat Fab′₂ anti-human IgG (Jackson Laboratories). Plates were washed as above and developed for 15 min with 100 μl of a Sigmafast p-nitrophenyl phosphate solution (Sigma-Aldrich). Plates were read at 405 nm and data plotted with Graphpad prism.
(ELISA stands for enzyme-linked immunosorbent assay.)

In a further assay the target is T2, human FcγRIIA (human, UniProt P12318 36-218).
T2 construct: Bought protein, construct not described
T2 sequence (looked up): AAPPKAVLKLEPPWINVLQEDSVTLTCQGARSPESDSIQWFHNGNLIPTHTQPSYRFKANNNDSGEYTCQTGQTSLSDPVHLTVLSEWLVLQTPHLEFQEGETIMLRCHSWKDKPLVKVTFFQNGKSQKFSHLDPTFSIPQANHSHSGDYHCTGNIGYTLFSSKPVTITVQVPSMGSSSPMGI
In words: ELISA, receptor coated on plate. On the procedure:
as §1

The target in assay [1] is T3, human FcγRIIIA (human, UniProt P08637 17-208).
T3 construct: Bought protein, construct not described; also called FcgRIIIA
T3 sequence (P08637 17-208 limits assumed): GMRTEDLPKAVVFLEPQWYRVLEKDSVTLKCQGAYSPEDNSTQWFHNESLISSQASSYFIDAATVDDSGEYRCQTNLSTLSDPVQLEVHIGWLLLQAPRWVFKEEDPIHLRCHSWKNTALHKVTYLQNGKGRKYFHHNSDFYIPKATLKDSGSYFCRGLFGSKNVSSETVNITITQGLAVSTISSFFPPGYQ
In words: ELISA, receptor coated on plate. On the procedure: as §1

In another assay the target is T4, human FcγRI (human, UniProt P12314 16-288).
T4 construct: Bought protein, construct not described
T4 sequence (P12314 16-288 limits assumed): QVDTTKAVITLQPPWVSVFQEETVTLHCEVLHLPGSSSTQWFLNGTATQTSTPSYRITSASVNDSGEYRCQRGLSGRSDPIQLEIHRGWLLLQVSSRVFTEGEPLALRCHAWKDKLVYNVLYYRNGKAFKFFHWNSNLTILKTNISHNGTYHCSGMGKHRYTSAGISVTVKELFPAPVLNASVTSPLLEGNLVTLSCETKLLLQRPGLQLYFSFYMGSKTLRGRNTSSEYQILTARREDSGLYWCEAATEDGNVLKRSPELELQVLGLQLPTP
Kind of assay: ELISA, receptor coated on plate. As for the experimental part:
as §1

In another assay the target is T5, human FcγRIIIB (human, UniProt O75015 17-200).
T5 construct: Bought protein, construct not described
T5 sequence (O75015 17-200 limits assumed): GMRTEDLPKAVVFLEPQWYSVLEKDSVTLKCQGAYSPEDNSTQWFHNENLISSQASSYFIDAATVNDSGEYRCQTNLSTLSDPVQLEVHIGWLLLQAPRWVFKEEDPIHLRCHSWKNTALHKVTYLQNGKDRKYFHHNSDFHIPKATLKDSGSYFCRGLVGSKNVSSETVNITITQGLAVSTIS
In words: ELISA, receptor coated on plate. On the procedure: as §1

Assay [2] concerns the target T6, soluble recombinant tetrameric human DC-SIGN (human, UniProt Q9NNX6 66-404, limits assumed).
T6 construct: also called Dendritic Cell-Specific Intercellular adhesion molecule-3-Grabbing Non-integrin
T6 sequence (looked up): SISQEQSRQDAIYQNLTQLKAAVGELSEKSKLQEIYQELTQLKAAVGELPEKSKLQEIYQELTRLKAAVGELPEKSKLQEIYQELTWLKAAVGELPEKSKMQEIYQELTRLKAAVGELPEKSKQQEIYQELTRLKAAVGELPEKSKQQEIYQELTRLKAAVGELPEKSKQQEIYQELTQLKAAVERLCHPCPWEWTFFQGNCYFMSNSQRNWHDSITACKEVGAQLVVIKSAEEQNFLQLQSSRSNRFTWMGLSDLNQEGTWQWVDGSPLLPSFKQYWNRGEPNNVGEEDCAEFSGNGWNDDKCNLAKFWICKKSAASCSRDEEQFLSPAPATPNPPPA
Kind of assay: ELISA, soluble tetrameric human DC-SIGN (FIG. 12 A).

The assay “human Siglec-1” deals with B7. Kind of assay: ELISA (FIG. 12 B).
Assay [3] has as its target T3, human FcγRIIIA. Kind of assay: ELISA, receptor coated on plate (FIG. 4). On the procedure:
as §1

Assay [4] deals with T7, monomeric IgG1-Fc control (human, UniProt P01857-1 104-330 = IgG part, limits assumed, N-linked glycan at Asn297).
T7 construct: domain: Fc; also called wildtype IgG-Fc; wildtype IgG1-Fc
In words: ELISA (FIG. 12 B).

7 molecules from patent US20190151446A1 (LIVERPOOL SCHOOL OF TROPICAL MEDICINE, published 2019) can be followed below.

B1: D221N mutant of hexa-Fc (Fc fusion)
chain: NKTHTCPPCPAPELLGGPSVFLFPPKPKDTLMISRTPEVTCVVVDVSHEDPEVKFNWYVDGVEVHNAKTKPREEQYNSTYRVVSVLTVCLQDWLNGKEYKCKVSNKALPAPIEKTISKAKGQPREPQVYTLPPSREEMTKNQVSLTCLVKGFYPSDIAVEWESNGQPENNYKTTPPVLDSDGSFFLYSKLTVDKSRWQQGNVFSCSVMHEALHNHYTQKSLSLSPGKLVLGPPLYNVSLVMSDTAGTCY
modifications: N-linked glycans at Asn221 (N1), Asn297 (N77) and Asn563 (N236)
notes: Made on the hexa-Fc template in CHO-K1 cells; multimeric, hyper-sialylated
B1: the binding result with human FcγRIIB, in the assay with human FcγRIIA, in the assay with human FcγRIIIA [1], with human FcγRI and with human FcγRIIIB was “no binding” each time.

B2: N297A mutant of hexa-Fc (Fc fusion)
chain: DKTHTCPPCPAPELLGGPSVFLFPPKPKDTLMISRTPEVTCVVVDVSHEDPEVKFNWYVDGVEVHNAKTKPREEQYASTYRVVSVLTVCLQDWLNGKEYKCKVSNKALPAPIEKTISKAKGQPREPQVYTLPPSREEMTKNQVSLTCLVKGFYPSDIAVEWESNGQPENNYKTTPPVLDSDGSFFLYSKLTVDKSRWQQGNVFSCSVMHEALHNHYTQKSLSLSPGKLVLGPPLYNVSLVMSDTAGTCY
modifications: N-linked glycan at Asn563 (N236)
notes: Made on the hexa-Fc template in CHO-K1 cells; still multimeric (pentamers and hexamers)
Take B2: the binding result with human FcγRIIB, in the assay with human FcγRIIA, with human FcγRIIIA [1], with human FcγRI and with human FcγRIIIB was “no binding” each time.

B3: D221N/N297A/N563A mutant of hexa-Fc (Fc fusion)
chain: NKTHTCPPCPAPELLGGPSVFLFPPKPKDTLMISRTPEVTCVVVDVSHEDPEVKFNWYVDGVEVHNAKTKPREEQYASTYRVVSVLTVCLQDWLNGKEYKCKVSNKALPAPIEKTISKAKGQPREPQVYTLPPSREEMTKNQVSLTCLVKGFYPSDIAVEWESNGQPENNYKTTPPVLDSDGSFFLYSKLTVDKSRWQQGNVFSCSVMHEALHNHYTQKSLSLSPGKLVLGPPLYAVSLVMSDTAGTCY
modifications: N-linked glycan at Asn221 (N1)
notes: Made on the hexa-Fc template in CHO-K1 cells; higher order multimers; also called D221/N297A/N563A
For the molecule B3, the binding result in [2] is given as “no binding”.

B4: D221N/N297A mutant of hexa-Fc (Fc fusion)
chain: NKTHTCPPCPAPELLGGPSVFLFPPKPKDTLMISRTPEVTCVVVDVSHEDPEVKFNWYVDGVEVHNAKTKPREEQYASTYRVVSVLTVCLQDWLNGKEYKCKVSNKALPAPIEKTISKAKGQPREPQVYTLPPSREEMTKNQVSLTCLVKGFYPSDIAVEWESNGQPENNYKTTPPVLDSDGSFFLYSKLTVDKSRWQQGNVFSCSVMHEALHNHYTQKSLSLSPGKLVLGPPLYNVSLVMSDTAGTCY
modifications: N-linked glycans at Asn221 (N1) and Asn563 (N236)
notes: Made on the hexa-Fc template in CHO-K1 cells; multimeric
Regarding B4, the binding result (with human FcγRIIB; in the assay with human FcγRIIA; in the assay with human FcγRIIIA [1]; with human FcγRI; with human FcγRIIIB; in [2]) was “no binding” throughout.

B5: N297A/N563A mutant of hexa-Fc (Fc fusion)
chain: DKTHTCPPCPAPELLGGPSVFLFPPKPKDTLMISRTPEVTCVVVDVSHEDPEVKFNWYVDGVEVHNAKTKPREEQYASTYRVVSVLTVCLQDWLNGKEYKCKVSNKALPAPIEKTISKAKGQPREPQVYTLPPSREEMTKNQVSLTCLVKGFYPSDIAVEWESNGQPENNYKTTPPVLDSDGSFFLYSKLTVDKSRWQQGNVFSCSVMHEALHNHYTQKSLSLSPGKLVLGPPLYAVSLVMSDTAGTCY
modifications: no glycans attached
notes: Made on the hexa-Fc template in CHO-K1 cells; Results-1 says it cannot form oligomers, Results-2 says it forms higher order multimers; also called glycan deficient mutant; N297A/N563A double-knockout
Take B5: the binding result with human Siglec-1 is listed as “no binding”.

B6: D221N/N563A mutant of hexa-Fc (Fc fusion)
chain: NKTHTCPPCPAPELLGGPSVFLFPPKPKDTLMISRTPEVTCVVVDVSHEDPEVKFNWYVDGVEVHNAKTKPREEQYNSTYRVVSVLTVCLQDWLNGKEYKCKVSNKALPAPIEKTISKAKGQPREPQVYTLPPSREEMTKNQVSLTCLVKGFYPSDIAVEWESNGQPENNYKTTPPVLDSDGSFFLYSKLTVDKSRWQQGNVFSCSVMHEALHNHYTQKSLSLSPGKLVLGPPLYAVSLVMSDTAGTCY
modifications: N-linked glycans at Asn221 (N1) and Asn297 (N77)
notes: Made on the hexa-Fc template in CHO-K1 cells; runs as higher order multimers approximating dodecamers; also called D221/N563A; D221N/N563A dodecamer
Regarding B6, the binding result with human FcγRIIB, in the assay with human FcγRIIA, with human FcγRI, with human FcγRIIIB and in the assay with human FcγRIIIA [3] was “binds” in each case.

For the molecule B7, in assay [4], the binding result is recorded as “no binding”.
